Assay results reported in paper PMC7618200 (The Biochemical journal, 2025).

B1: MyD88 peptide 125AEKPLQVAAVDSSVPRT141 (17-mer) [human] / SPOP MATH domain (SPOP^MATH; residues 28-166) [human] (parent complex)
chain 1: AEKPLQVAAVDSSVPRT
chain 2: KVVKFSYMWTINNFSFCREEMGEVIKSSTFSSGANDKLKWCLRVNPKGLDEESKDYLSLYLLLVSCPKSEVRAKFKFSILNAKGEETKAMESQRAYRFVQGKDWGFKKFIRRDFLLDEANGLLPDDKLTLFCEVSVVQD

Variants of: B1
Test: FP competition assay; competitor against fluorescently labeled Puc peptide

| Variant | IC50 [µM] |
| --- | --- |
| chain 1 AEKPLQVAAVAAAVPRT | ~2110 |
